# Laboratory results: patent US20240076386
# Assay: AC-SINS self-interaction
substance,measurement,value
Polyreactivity negative control,"AC-SINS (wavelength of maximum absorbance relative to blank, nm)",1 nm
